Patent US20240417458A1 (DISC MEDICINE, published 2024)

How the values were obtained:
[1] = target: T1, soluble human RGMc (human, UniProt Q6ZVN8 36-400); assay: SPR (BIAcore);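 further: Anti-HJV antibodies, binding affinity to soluble human RGMc measured by BIAcore surface plasmon resonance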
T1 construct: also called huRGMc; soluble hRGMc
T1 sequence: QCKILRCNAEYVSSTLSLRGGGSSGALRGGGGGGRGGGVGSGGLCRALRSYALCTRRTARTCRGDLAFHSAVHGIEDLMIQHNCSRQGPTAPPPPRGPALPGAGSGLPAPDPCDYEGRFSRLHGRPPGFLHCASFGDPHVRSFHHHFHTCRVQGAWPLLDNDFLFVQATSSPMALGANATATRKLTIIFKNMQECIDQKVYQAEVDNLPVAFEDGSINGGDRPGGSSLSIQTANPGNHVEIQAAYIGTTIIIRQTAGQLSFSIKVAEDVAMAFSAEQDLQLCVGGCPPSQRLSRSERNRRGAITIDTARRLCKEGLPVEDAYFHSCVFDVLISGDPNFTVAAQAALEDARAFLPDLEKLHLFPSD
Method: (§1) Binding affinities of the anti-HJV antibodies to soluble human RGMa, Rat RGMa and human RGMc were measured by BIAcore analysis.

[2] = target: T2, soluble human RGMa (human, UniProt Q96B86 48-422, limits assumed); assay: SPR (BIAcore);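 further: Anti-HJV antibodies tested for binding against soluble human RGMa by surface plasmon resonance on a BIAcore instrument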
T2 construct: Soluble antigen in BIAcore; also called huRGMa; repulsive guidance molecule A
T2 sequence (looked up): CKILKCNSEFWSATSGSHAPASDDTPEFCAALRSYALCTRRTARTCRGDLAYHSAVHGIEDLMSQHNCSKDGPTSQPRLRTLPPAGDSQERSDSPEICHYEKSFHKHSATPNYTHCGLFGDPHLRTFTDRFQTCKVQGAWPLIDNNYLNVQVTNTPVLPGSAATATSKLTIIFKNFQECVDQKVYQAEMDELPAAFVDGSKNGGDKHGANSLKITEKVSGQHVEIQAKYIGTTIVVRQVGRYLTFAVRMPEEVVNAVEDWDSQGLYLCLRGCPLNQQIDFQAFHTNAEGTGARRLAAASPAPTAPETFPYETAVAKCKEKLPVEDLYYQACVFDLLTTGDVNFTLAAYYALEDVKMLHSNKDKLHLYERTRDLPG
Method: as §1

[3] = target: T2, soluble human RGMa; assay: SPR; method not named in Example 2
[4] = target: T1, soluble human RGMc; assay: SPR; method not named in Example 2
[5] = target: T3, membrane-bound human RGMa (human, UniProt Q96B86 169-424); assay: cell-based or functional assay
T3 sequence (looked up): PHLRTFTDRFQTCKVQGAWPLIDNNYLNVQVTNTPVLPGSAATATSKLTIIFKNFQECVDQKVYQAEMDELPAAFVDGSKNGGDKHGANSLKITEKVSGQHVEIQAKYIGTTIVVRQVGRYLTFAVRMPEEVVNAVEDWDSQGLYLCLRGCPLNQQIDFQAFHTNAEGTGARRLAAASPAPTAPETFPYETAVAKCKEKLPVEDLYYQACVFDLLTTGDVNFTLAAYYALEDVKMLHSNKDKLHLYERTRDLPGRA

[6] = target: T4, membrane-bound human RGMc (human, UniProt Q6ZVN8 36-400); assay: cell-based or functional assay
T4 sequence: T1 sequence

[7] = target: T5, Cyno RGMc (cyno, UniProt A0A2K5TJX5 36-401); assay: SPR (BIAcore), RGM antigen in solution
T5 sequence: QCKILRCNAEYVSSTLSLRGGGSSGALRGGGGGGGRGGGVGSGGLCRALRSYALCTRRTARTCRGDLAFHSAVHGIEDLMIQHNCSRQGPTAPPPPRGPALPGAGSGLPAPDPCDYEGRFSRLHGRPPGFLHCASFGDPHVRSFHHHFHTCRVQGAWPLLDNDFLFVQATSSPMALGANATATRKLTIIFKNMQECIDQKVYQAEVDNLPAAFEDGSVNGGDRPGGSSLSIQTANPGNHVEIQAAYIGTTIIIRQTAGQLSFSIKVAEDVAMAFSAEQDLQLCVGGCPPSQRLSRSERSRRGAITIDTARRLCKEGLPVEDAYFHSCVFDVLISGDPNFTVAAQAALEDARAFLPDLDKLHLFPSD

[8] = target: T2, soluble human RGMa; assay: SPR (BIAcore), RGM antigen in solution
[9] = target: T4, membrane-bound human RGMc; assay: cell-based or functional assay; remark: listed apart in the source

- Kd [1]: 0.105 nM
- koff [1]: 0.00039 s⁻¹
- kon [1]: 3.95e+06 M⁻¹ s⁻¹
- Kd [2]: 0.031 nM
- koff [2]: 2.7e-05 s⁻¹
- kon [2]: 870000 M⁻¹ s⁻¹
- Kd [3]: 0.078 nM
- koff [3]: 4.2e-05 s⁻¹
- kon [3]: 540000 M⁻¹ s⁻¹
- Kd [4]: 0.11 nM
- koff [4]: 0.00032 s⁻¹
- kon [4]: 3e+06 M⁻¹ s⁻¹
- IC50 (nM), BMP reporter assay for RGMa [5]: ~56.5 nM
- IC50 (read off the curve) [6]: ~0.4 nM
- Kd [7]: 0.12 nM
- koff [7]: 0.00031 s⁻¹
- kon [7]: 2.6e+06 M⁻¹ s⁻¹
- Kd [8]: 0.074 nM
- koff [8]: 3.6e-05 s⁻¹
- kon [8]: 490000 M⁻¹ s⁻¹
- Potency on membrane hRGMc (RGMc/BMP reporter assay), IC50 [9]: 0.37 nM
B1: hHA-008 (antibody, human IgG1, kappa, L234A L235A)
heavy: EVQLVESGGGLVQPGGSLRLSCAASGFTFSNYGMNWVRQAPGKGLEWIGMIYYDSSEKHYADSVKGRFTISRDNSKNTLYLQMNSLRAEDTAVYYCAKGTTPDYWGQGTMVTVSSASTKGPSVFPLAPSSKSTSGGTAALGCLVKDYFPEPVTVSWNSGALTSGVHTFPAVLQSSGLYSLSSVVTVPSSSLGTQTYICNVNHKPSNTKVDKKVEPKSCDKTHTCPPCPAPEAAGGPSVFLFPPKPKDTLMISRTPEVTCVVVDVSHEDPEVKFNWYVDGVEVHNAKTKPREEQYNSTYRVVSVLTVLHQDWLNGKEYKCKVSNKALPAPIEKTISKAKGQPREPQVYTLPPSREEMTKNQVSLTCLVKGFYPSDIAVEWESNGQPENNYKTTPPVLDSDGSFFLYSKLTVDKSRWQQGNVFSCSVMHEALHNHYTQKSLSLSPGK
light: DVVLTQSPLSLPVTLGQPASISCRSSQSLEESDGYTFLHWFQQRPGQSPRLLIYEVSTRFSGVPDRFSGSGSGTDFTLKISRVEAEDVGVYYCFQATHDPLTFGQGTKLEIKRTVAAPSVFIFPPSDEQLKSGTASVVCLLNNFYPREAKVQWKVDNALQSGNSQESVTEQDSKDSTYSLSSTLTLSKADYEKHKVYACEVTHQGLSSPVTKSFNRGEC
notes: hIgG1 L234A, L235A, kappa; also called hHA-008 (hIgG1mut(LALA)/k)
